US20210122814A1 (SCHOLAR ROCK, published 2021)

Key:
[1] = target: T1, recombinant human GARP-proTGFβ1 complex (human, UniProt P01137 30-390; Q14392 20-627); assay: MSD-SET (solution equilibrium titration), % free antigen against Ab6 concentration
T1 construct: also called hGARP-proTGFβ1; hGARP
Method: (§1) MSD-SET assays were performed to measure affinities of the antibodies at equilibrium. Briefly, each test antibody was diluted 3-5 fold and samples were mixed with biotinylated antigen in a 48-well dish. The SET samples were equilibrated for 20-24 hours at room temperature. Meanwhile, a capture plate was coated with IgG (20 nM) and incubated overnight at 4° C. or 30 minutes at room temperature, followed by a blocking step with 5% BSA. After the capture plate was washed three times, SET samples were added and incubated for 150 seconds. The plate was washed once to remove unbound complexes. 250 ng/ml SA-Sulfotag was added then washed 3 times. 2× Read Buffer was added, and signals from the labeled bound complexes were read with the use of QuickPlex™ SQ 120 instrument.
(§2) As an example, MSD standard plates (MSD) were coated with a 20 nM solution of monoclonal antibody in PBS for 30 min at room temperature or overnight at 4° C. […] After 20-24 hours of equilibration, the antibody-coated plate was blocked with Blocking Buffer A (MSD) for 30 minutes at room temperature and washed with wash buffer (PBS, 0.1% BSA, 0.05% Tween-20) before adding the equilibrated antibody-antigen complexes to the plate for exactly 2.5 minutes. […] After washing with wash buffer, plates were read in MSD read buffer (MSD) using the MESO QuickPlex SQ 120 (MSD). […]

[2] = target: T2, recombinant human LRRC33-proTGFβ1 complex (human, UniProt P01137 30-390; Q86YC3 19-650); assay: as above
T2 construct: also called hLRRC33-proTGFβ1; hLRRC33
T2 sequence (P01137 30-390 limits assumed, chain 1 of 2): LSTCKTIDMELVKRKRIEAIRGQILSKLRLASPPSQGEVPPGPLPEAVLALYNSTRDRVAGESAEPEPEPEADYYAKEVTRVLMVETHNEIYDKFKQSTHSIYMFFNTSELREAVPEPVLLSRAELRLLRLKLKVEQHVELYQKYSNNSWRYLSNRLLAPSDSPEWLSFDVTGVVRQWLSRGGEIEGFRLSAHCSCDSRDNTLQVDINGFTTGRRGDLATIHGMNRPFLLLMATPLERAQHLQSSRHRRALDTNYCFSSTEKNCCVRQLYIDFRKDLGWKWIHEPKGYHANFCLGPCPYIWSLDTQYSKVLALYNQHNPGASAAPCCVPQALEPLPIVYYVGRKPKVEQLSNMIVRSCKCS
T2 sequence (Q86YC3 other isoform, or with tags, fused parts or gaps limits assumed, chain 2 of 2): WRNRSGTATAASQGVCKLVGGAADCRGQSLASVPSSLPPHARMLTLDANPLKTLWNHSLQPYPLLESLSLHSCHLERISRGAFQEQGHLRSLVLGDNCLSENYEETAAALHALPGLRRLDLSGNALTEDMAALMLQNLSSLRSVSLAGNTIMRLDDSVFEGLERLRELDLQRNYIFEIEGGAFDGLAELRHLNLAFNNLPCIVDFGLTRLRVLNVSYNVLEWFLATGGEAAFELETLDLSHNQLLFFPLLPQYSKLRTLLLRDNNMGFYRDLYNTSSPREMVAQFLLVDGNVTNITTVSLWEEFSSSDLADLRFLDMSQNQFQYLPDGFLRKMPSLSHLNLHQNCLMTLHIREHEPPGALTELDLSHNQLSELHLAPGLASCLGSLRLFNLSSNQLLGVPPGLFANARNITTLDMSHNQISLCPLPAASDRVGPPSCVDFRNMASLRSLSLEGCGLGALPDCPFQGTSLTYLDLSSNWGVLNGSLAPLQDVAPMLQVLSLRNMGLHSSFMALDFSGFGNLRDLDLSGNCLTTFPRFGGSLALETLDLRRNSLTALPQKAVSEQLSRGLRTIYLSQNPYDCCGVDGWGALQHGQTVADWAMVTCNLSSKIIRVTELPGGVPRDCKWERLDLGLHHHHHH
Method: as §1, §2

LTBP:proTGFβ1 = LTBP:proTGFβ1 (human); assay: cell-based or functional assay

T1 sequence (P01137 30-390, chain 1 of 2): as the sequence (P01137 30-390 limits assumed, chain 1 of 2) above
T1 sequence (Q14392 20-627, chain 2 of 2): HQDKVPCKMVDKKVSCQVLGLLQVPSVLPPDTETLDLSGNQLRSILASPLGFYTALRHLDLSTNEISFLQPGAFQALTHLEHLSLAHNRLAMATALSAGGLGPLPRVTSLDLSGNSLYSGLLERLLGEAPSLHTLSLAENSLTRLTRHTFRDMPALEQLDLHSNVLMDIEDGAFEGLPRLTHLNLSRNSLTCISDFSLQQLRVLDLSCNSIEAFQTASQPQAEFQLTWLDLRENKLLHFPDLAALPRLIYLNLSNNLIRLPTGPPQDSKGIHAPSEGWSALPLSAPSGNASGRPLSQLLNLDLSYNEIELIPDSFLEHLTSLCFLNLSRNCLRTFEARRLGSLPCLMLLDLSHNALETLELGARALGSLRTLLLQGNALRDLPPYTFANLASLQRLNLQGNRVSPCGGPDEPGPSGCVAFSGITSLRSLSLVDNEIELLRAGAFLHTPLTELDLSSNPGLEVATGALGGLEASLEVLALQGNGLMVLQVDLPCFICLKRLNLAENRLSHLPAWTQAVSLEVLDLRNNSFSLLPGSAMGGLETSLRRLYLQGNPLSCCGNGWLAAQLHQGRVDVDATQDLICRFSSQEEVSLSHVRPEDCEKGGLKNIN

B1: Ab6 (antibody, V domains shown)
VH: EVQLVESGGGLVQPGGSLRLSCTASGFTFSSFSMDWVRQAPGKGLEWVSYISPSADTIYYADSVKGRFTISRDNAKNTLYLQMNSLRAEDTAVYYCARGVLDYGDMLMPWGQGTLVTVSS
VL: DIQMTQSPSSLSASVGDRVTITCQASQDITNYLNWYQQKPGKAPKLLIYDASNLETGVPSRFSGSGSGTDFTFTISSLQPEDIATYYCQQADNHPPWTFGGGTKVEIKR
In the case of B1, the “IC50 (read off the curve)” value [1] is reported as roughly 30 pM, the “IC50 (read off the curve)” value [2] is reported as roughly 60 pM and the “IC50 (read off the curve)” value (LTBP:proTGFβ1) is reported as roughly 1000 pM.
